{"source": "patent US20210292396A1", "assay_in_all_cases": "cell-based or functional assay", "key": {"[1]": {"molecular_target": "Env of HIV isolate 3415.v1.c1 (clade A) (HIV)"}, "[2]": {"molecular_target": "HIV Env of isolate DU123.06 (HIV)"}, "[3]": {"molecular_target": "Env of HIV isolate 16845-2.22 (clade C) (HIV)"}, "[4]": {"molecular_target": "HIV Env of isolate BG505.W6M.C2 (HIV)"}, "[5]": {"molecular_target": "Env of HIV isolate 620345.c1 (clade AE) (HIV)"}, "[6]": {"molecular_target": "HIV Env of isolate CAP210.E8 (HIV)"}, "[7]": {"molecular_target": "HIV Env of isolate 25710-2.43 (HIV)"}, "[8]": {"molecular_target": "Env of HIV isolate 0439.v5.c1 (clade A) (HIV)"}, "[9]": {"molecular_target": "Env of HIV isolate X1254.c3 (clade G) (HIV)"}, "[10]": {"molecular_target": "Env of HIV isolate JRCSF.JB (clade B) (HIV)"}, "[11]": {"molecular_target": "HIV Env of isolate QH0692.42 (HIV)"}, "[12]": {"molecular_target": "Env of HIV isolate CNE53 (clade C in Table 7) (HIV)"}, "[13]": {"molecular_target": "HIV Env of isolate 16936-2.21 (HIV)"}, "Envelope of SVA.MLV": {"molecular_target": "Envelope of SVA.MLV"}, "[14]": {"molecular_target": "HIV Env of isolate CM244.ec1 (HIV)"}, "[15]": {"molecular_target": "HIV Env of isolate BJOX025000.01.1 (HIV)"}, "[16]": {"molecular_target": "Env of HIV isolate PVO.04 (clade B) (HIV)"}, "[17]": {"molecular_target": "HIV Env of isolate CNE12 (HIV)"}, "[18]": {"molecular_target": "HIV Env of isolate BJOX028000.10.3 (HIV)"}, "[19]": {"molecular_target": "HIV Env of isolate UG021.16 (HIV)"}, "[20]": {"molecular_target": "HIV Env of isolate 25711-2.4 (HIV)"}, "[21]": {"molecular_target": "Env of HIV isolate 6322.v4.c1 (clade C) (HIV)"}, "[22]": {"molecular_target": "Env of HIV isolate QH209.14M.A2 (clade A) (HIV)"}, "[23]": {"molecular_target": "Env of HIV isolate 3301.v1.c24 (clade AC) (HIV)"}, "[24]": {"molecular_target": "HIV Env of isolate ZM55.28a (HIV)"}, "[25]": {"molecular_target": "HIV Env of isolate C1080.c3 (HIV)"}, "[26]": {"molecular_target": "Env of HIV isolate SC422.8 (clade B) (HIV)"}, "[27]": {"molecular_target": "Env of HIV isolate BJOX009000.02.4 (clade AE) (HIV)"}, "[28]": {"molecular_target": "Env of HIV isolate 25711-2.4 (clade C) (HIV)"}, "[29]": {"molecular_target": "HIV Env of isolate MB201.A1 (HIV)"}, "[30]": {"molecular_target": "HIV Env of isolate SO18.18 (HIV)"}, "[31]": {"molecular_target": "Env of HIV isolate Q168.a2 (clade AD) (HIV)"}, "[32]": {"molecular_target": "Env of HIV isolate UG021.16 (clade D) (HIV)"}, "[33]": {"molecular_target": "Env of HIV isolate 0330.v4.c3 (clade A) (HIV)"}, "[34]": {"molecular_target": "HIV Env of isolate BR07.DG (HIV)"}, "[35]": {"molecular_target": "HIV Env of isolate CNE57 (HIV)"}, "[36]": {"molecular_target": "Env of HIV isolate 0921.v2.c14 (clade C) (HIV)"}, "[37]": {"molecular_target": "Env of HIV isolate 3365.v2.c20 (clade A) (HIV)"}, "[38]": {"molecular_target": "HIV Env of isolate C4118.09 (HIV)"}, "[39]": {"molecular_target": "HIV Env of isolate SS1196.01 (HIV)"}, "[40]": {"molecular_target": "Env of HIV isolate CH181.12 (clade BC) (HIV)"}, "[41]": {"molecular_target": "Env of HIV isolate BR07.DG (clade B) (HIV)"}, "[42]": {"molecular_target": "Env of HIV isolate 231965.c01 (clade D) (HIV)"}, "[43]": {"molecular_target": "HIV Env of isolate 25925-2.22 (HIV)"}, "[44]": {"molecular_target": "HIV Env of isolate UG037.8 (HIV)"}, "[45]": {"molecular_target": "Env of HIV isolate X2278.C2.B6 (clade B) (HIV)"}, "[46]": {"molecular_target": "Env of HIV isolate 6101.10 (clade B) (HIV)"}, "[47]": {"molecular_target": "Env of HIV isolate A03349M1.vrc4a (clade D) (HIV)"}, "[48]": {"molecular_target": "Env of HIV isolate R2184.c4 (clade AE) (HIV)"}, "[49]": {"molecular_target": "HIV Env of isolate R1166.c1 (HIV)"}, "[50]": {"molecular_target": "HIV Env of isolate CNE3 (HIV)"}, "[51]": {"molecular_target": "Env of HIV isolate CAP256.206.C9 (clade C) (HIV)"}}}
{"substance": "PGT121 (antibody)", "values": [{"measurement": "IC50, pseudovirus neutralization", "setting": "[1]", "result": "> 50", "unit": "µg/mL"}, {"measurement": "IC80, pseudovirus neutralization", "setting": "[2]", "result": 0.135, "unit": "µg/mL"}, {"measurement": "IC50, pseudovirus neutralization", "setting": "[3]", "result": 2.72, "unit": "µg/mL"}, {"measurement": "IC80", "setting": "[4]", "result": 0.165, "unit": "µg/mL"}, {"measurement": "IC50, pseudovirus neutralization", "setting": "[5]", "result": "> 50", "unit": "µg/mL"}, {"measurement": "IC80, pseudovirus neutralization", "setting": "[6]", "result": "> 50", "unit": "µg/mL"}, {"measurement": "IC80, pseudovirus neutralization", "setting": "[7]", "result": 0.066, "unit": "µg/mL"}, {"measurement": "IC50, pseudovirus neutralization", "setting": "[8]", "result": "> 50", "unit": "µg/mL"}, {"measurement": "IC50, pseudovirus neutralization", "setting": "[9]", "result": 0.0347, "unit": "µg/mL"}, {"measurement": "IC50, pseudovirus neutralization", "setting": "[10]", "result": 0.0563, "unit": "µg/mL"}, {"measurement": "IC80", "setting": "[11]", "result": 5.8, "unit": "µg/mL"}, {"measurement": "IC50, pseudovirus neutralization", "setting": "[12]", "result": 0.0263, "unit": "µg/mL"}, {"measurement": "IC80, pseudovirus neutralization", "setting": "[13]", "result": 0.024, "unit": "µg/mL"}, {"measurement": "IC80, pseudovirus neutralization", "setting": "Envelope of SVA.MLV", "result": "> 50", "unit": "µg/mL"}, {"measurement": "IC80", "setting": "[14]", "result": "> 50", "unit": "µg/mL"}, {"measurement": "IC80", "setting": "[15]", "result": "> 50", "unit": "µg/mL"}, {"measurement": "IC50, pseudovirus neutralization", "setting": "[16]", "result": 0.189, "unit": "µg/mL"}, {"measurement": "IC80", "setting": "[17]", "result": 0.0347, "unit": "µg/mL"}, {"measurement": "IC80", "setting": "[18]", "result": "> 50", "unit": "µg/mL"}, {"measurement": "IC80, pseudovirus neutralization", "setting": "[19]", "result": "> 50", "unit": "µg/mL"}, {"measurement": "IC80, pseudovirus neutralization", "setting": "[20]", "result": 0.0497, "unit": "µg/mL"}, {"measurement": "IC50, pseudovirus neutralization", "setting": "[21]", "result": "> 50", "unit": "µg/mL"}, {"measurement": "IC50, pseudovirus neutralization", "setting": "[22]", "result": "> 50", "unit": "µg/mL"}, {"measurement": "IC50, pseudovirus neutralization", "setting": "[23]", "result": 0.0217, "unit": "µg/mL"}, {"measurement": "IC80, pseudovirus neutralization", "setting": "[24]", "result": 0.216, "unit": "µg/mL"}, {"measurement": "IC80", "setting": "[25]", "result": "> 50", "unit": "µg/mL"}, {"measurement": "IC50, pseudovirus neutralization", "setting": "[26]", "result": 0.115, "unit": "µg/mL"}, {"measurement": "IC50, pseudovirus neutralization", "setting": "[27]", "result": 0.751, "unit": "µg/mL"}, {"measurement": "IC50, pseudovirus neutralization", "setting": "[28]", "result": 0.0173, "unit": "µg/mL"}, {"measurement": "IC80", "setting": "[29]", "result": 0.0283, "unit": "µg/mL"}, {"measurement": "IC80, pseudovirus neutralization", "setting": "[30]", "result": 0.0167, "unit": "µg/mL"}, {"measurement": "IC50, pseudovirus neutralization", "setting": "[31]", "result": "> 50", "unit": "µg/mL"}, {"measurement": "IC50, pseudovirus neutralization", "setting": "[32]", "result": 0.916, "unit": "µg/mL"}, {"measurement": "IC50, pseudovirus neutralization", "setting": "[33]", "result": 0.0597, "unit": "µg/mL"}, {"measurement": "IC80", "setting": "[34]", "result": 0.596, "unit": "µg/mL"}, {"measurement": "IC80", "setting": "[35]", "result": 0.0777, "unit": "µg/mL"}, {"measurement": "IC50, pseudovirus neutralization", "setting": "[36]", "result": "> 50", "unit": "µg/mL"}, {"measurement": "IC50, pseudovirus neutralization", "setting": "[37]", "result": 0.112, "unit": "µg/mL"}, {"measurement": "IC80", "setting": "[38]", "result": "> 50", "unit": "µg/mL"}, {"measurement": "IC80", "setting": "[39]", "result": 0.0307, "unit": "µg/mL"}, {"measurement": "IC50, pseudovirus neutralization", "setting": "[40]", "result": 0.0313, "unit": "µg/mL"}, {"measurement": "IC50, pseudovirus neutralization", "setting": "[41]", "result": 0.132, "unit": "µg/mL"}, {"measurement": "IC50, pseudovirus neutralization", "setting": "[42]", "result": "> 50", "unit": "µg/mL"}, {"measurement": "IC80, pseudovirus neutralization", "setting": "[43]", "result": 0.0867, "unit": "µg/mL"}, {"measurement": "IC80", "setting": "[44]", "result": 0.307, "unit": "µg/mL"}, {"measurement": "IC50, pseudovirus neutralization", "setting": "[45]", "result": 0.026, "unit": "µg/mL"}, {"measurement": "IC50, pseudovirus neutralization", "setting": "[46]", "result": 0.0123, "unit": "µg/mL"}, {"measurement": "IC50, pseudovirus neutralization", "setting": "[47]", "result": 0.0747, "unit": "µg/mL"}, {"measurement": "IC50, pseudovirus neutralization", "setting": "[48]", "result": "> 50", "unit": "µg/mL"}, {"measurement": "IC80", "setting": "[49]", "result": "> 50", "unit": "µg/mL"}, {"measurement": "IC80", "setting": "[50]", "result": "> 50", "unit": "µg/mL"}, {"measurement": "IC50, pseudovirus neutralization", "setting": "[51]", "result": 0.02, "unit": "µg/mL"}]}
